Experimental data: US20090142281A1, “Composition Comprising A Coupled Enzyme System” (priority 2005, published 2009)

How the values were obtained:
[1] = In gel overlay activity assay (PMS/NBT) using sorbitol as substrate; assay type: biochemical; conditions: native gel
Excerpt: b) In gel overlay activity assay (PMS/NBT) using sorbitol as substrate.
The cell lysates were fractionated on a native gel that was further tested in an in-gel overlay activity assay using sorbitol as the substrate and an assay based on the PMS mediated reduction of NBT. […] The PMS/NBT is a diagnostic assay for flavoproteins where PMS=phenazine methosulfate is a redox mediator which is reduced by reduced FAD.

[2] = cited from earlier work

B1: sorbitol oxidase from Streptomyces species H-7775: sorbitol oxidase of Streptomyces sp. H-7775, SEQ ID NO 1, 420 amino acids (protein)
chain: MTPAEKNWAGNITFGAKRLCVPRSVRELRETVAASGAVRPLGTRHSFNTVADTSGDHVSLAGLPRVVDIDVPGRAVSLSAGLRFGEFAAELHARGLALANLGSLPHISVAGAVATGTHGSGVGNRSLAGAVRALSLVTADGETRTLRRTDEDFAGAVVSLGALGVVTSLELDLVPAFEVRQWVYEDLPEATLAARFDEVMSAAYSVSVFTDWRPGPVGQVWLKQRVGDEGARSVMPAEWLGARLADGPRHPVPGMPAGNCTAQQGVPGPWHERLPHFRMEFTPSNGDELQSEYFVARADAVAAYEALARLRDRIAPVLQVSELRTVAADDLWLSPAHGRDSVAFHFTWVPDAAAVAPVAGAIEEALAPFGARPHWGKVFSTAPEVLRTLYPRYADFEELVGRHDPEGTFRNAFLDRYFRR
modifications: Streptomyces sp. H7775
In the case of B1, the “activity towards sorbitol (stained band)” value [1] is listed as “has activity towards sorbitol”, the “pH range of stability” value ([2]; 24 hours at 30° C.) is listed as 7.5-10 pH and the optimum temperature ([2]; at pH 7.5) is listed as 50 °C.
